The values below come from PMC10728164.

For the experiment, the target named is cardiac troponin I (human (endogenous in heart tissue)) (UniProt P19429). Nature of the experiment: affinity purification with mass spectrometry; co-purification of the cTn subunits from human heart extract on the cTnI-binding peptide nanoparticles (NP-Pep); 25 mM Tris pH 7.5, 700 mM LiCl, 4 °C; native elution; subunits in the eluate analysed (Supplementary Fig. 2, 3a) and by top-down RPLC-MS/MS.
UniProt P19429, sequence (P19429 whole entry): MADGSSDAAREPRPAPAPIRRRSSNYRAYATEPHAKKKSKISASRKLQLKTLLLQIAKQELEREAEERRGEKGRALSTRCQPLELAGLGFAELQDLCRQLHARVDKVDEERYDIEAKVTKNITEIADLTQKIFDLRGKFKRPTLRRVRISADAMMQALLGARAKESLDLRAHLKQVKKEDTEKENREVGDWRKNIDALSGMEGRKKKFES

In the case of cardiac troponin T (natural protein), the stoichiometry N was 1.
